The supplement of paper PMC10567573

B1: HESX1 (parent)
chain: QKKDCVPLMKPHRPWADTCSSSGK

Variants of: B1
Experiment: protein stability index of a GFP-peptide fusion (GPS, HEK-293T) (PSI 1-6); higher = more stable
Details: c terminus: a fixed tail appended
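Further: lentivirally expressed fusions sorted by FACS into six bins by GFP to DsRed ratio, PSI derived from sequencing read proportions per bin multiplied by bin number.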

Protein stability index of substitutions, site by site:
T18: S 3.28, Q 3.36, K 4.01, P 4.02, L 2.24, I 1.57, R 2.69, N 3.75, C 3.15, A 3.41, V 1.9, W 2.94, M 2.44, D 3.96, G 3.69, F 2.35, H 2.13, Y 2.25, E 4.29
R13: F 3.75, P 3.25, K 3.5, L 3.4, Y 3.64, H 3.6, W 3.4, C 3.26, I 3.66, G 4.21, T 3.33, V 3.11, M 3.06, N 4.15, Q 4.18, D 4.11, E 4.97
S22: Y 3.29, N 2.89, T 3.08, I 3.13, R 3.3, F 2.74, H 3.96, D 2.61, A 2.95, K 3.69, W 2.12, E 3.13, G 2.23, P 3.68, M 3.43, V 2.78, C 2.94
D17: V 2.91, I 2.57, W 2.78, F 3.07, Q 3.89, Y 3.17, M 3.36, R 3.46, N 3.22, G 3.45, S 3.74, K 3.91, C 2.81, E 3.53, P 3.6, H 3.71, T 3.06, A 3.48
P14: C 2.36, D 3.21, V 2.23, K 2.81, Y 2.98, S 3.1, A 2.52, W 2.96, M 2.84, H 3.95, G 3.96, F 3.1, I 3.26, L 3.06, Q 3.88, E 4.12, N 2.72
V6: S 3.4, N 3.98, F 3.28, T 3.92, A 4.1, L 2.92, D 3.11, Q 2.98, M 3.05, H 3.17, K 2.57, I 3.03, P 3.31, Y 3.01, G 3.46, R 2.88, W 3.08, C 3.1, E 4.38
G23: W 1.6, S 3.32, I 2.76, H 2.62, Y 3.15, L 3.46, V 2.33, C 2.45, F 1.61, R 3.5, A 3.69, P 3.81, D 2.46, K 4.08, N 3.13, M 3.08
C19: F 2.66, S 4.36, H 3.77, W 2.47, D 3.9, N 4.83, I 2.45, A 4.07, T 3.82, V 2.17, K 4.47, M 4.19, R 4.08, E 4.32, L 3.13, Q 4.03, Y 3.25, P 4.37
L8: F 3.14, V 3.28, K 3.73, A 3.29, T 2.82, W 3.47, C 2.7, G 3.18, R 2.59, N 3.19, S 3.86, I 2.82, H 2.31, M 3, Y 3.78, D 3.93, Q 4.1, P 3.49, E 3.58
S20: Q 3.05, E 3.47, T 2.96, L 2.61, W 2.74, P 3.79, H 3.24, V 3.84, R 3, I 2.98, D 3.32, M 3.18, A 3.71, C 3.03, Y 2.31, K 3.83, F 2.3, G 2.38, N 3.33
H12: D 4.49, R 4.82, C 3.42, W 2.29, G 3.98, K 3.73, A 4, I 3.07, S 4.05, N 3.77, F 3.25, P 4.01, E 4.44, M 3.18, T 3.08, L 3.91, Q 3.94, Y 3.29
K10: H 3.79, F 3.21, Y 3.45, I 3.7, M 2.92, W 2.52, A 3.18, S 3.74, N 4.25, L 3.58, Q 4.19, C 3.88, G 3.47, V 3.94, T 3.35, R 3.48, D 4.83
S21: L 3.18, E 3.86, F 2.44, A 3.61, Y 2.32, N 3.4, T 3.38, K 3.68, V 3.15, W 2.79, H 2.88, G 3.92, M 2.58, R 2.56, D 3.24, C 2.92, P 3.58, I 2.69, Q 3.75
P7: V 2.56, D 3.93, C 2.74, N 3.07, L 2.68, M 3.17, Q 3.34, A 2.79, R 2.46, S 3.38, W 1.76, I 2.44, K 2.8, F 2.07, T 2.7, Y 2.78, H 2.92
C5: S 3.4, P 3.17, M 3.19, Y 3.38, N 3.06, T 3.2, R 4.16, Q 2.49, V 3.78, W 3.34
K24: E 2.28, D 3.22, C 3.33, A 3.7
M9: K 3.08, W 3, Y 3.2, G 4.27, E 4.04, C 3.76, N 3.58, R 3.13, S 2.93, P 3.51, D 4.08, F 2.85, I 3.23, L 3.41, T 3.77, H 3.89, A 3.69
W15: P 4.35, Y 4.39, C 4.02, I 4.26, T 5.26, D 4.81, N 4.79, L 4.66, M 4.57, H 4.64, E 5.37, F 3.47, Q 4.79, K 4.92, S 4.8, A 4.62, G 4.96
P11: A 3.29, G 3.87, R 3.46, L 2.85, N 3.48, W 3.16, I 3.42, D 3.96, K 3.42, T 4.68, H 3.51, Q 2.74, E 3.1, S 3.64, Y 2.55, M 3.83, F 3.03
A16: E 3.9, P 3.96, H 3.98, G 3.57, S 3.72, L 3.75, T 3.76, W 3.39, C 3.72, F 3.44, V 2.46, D 4.66, N 4.2, R 3.45, Y 3.49, Q 4, I 3.34, K 3.96, M 4.02
